Assay results as given in patent US20190241657A1 (Sanofi, published 2019).

What was measured:
[1] = target: T1, mature human CD123 His-II tagged Fc-fusion protein (human); assay: Biacore
T1 construct: also called huCD123; CD123-Fc-His
Experimental: Cytotoxic effects of the CODV-Fab-TL1-RF “hz20G6×hz7G3”, CODV-Fab-OL1 “hz20G6×hz7G3” and the single chain DART MGD006 were assessed. Affinities to the CD3ε/δ-complex and CD123 of each bispecific construct were measured by Biacore. Furthermore, a cytotoxic assay was performed as described in 2.8 (table 3).
Binding affinities of CODV antibody-like binding proteins to human CD3ε/δ and human CD123 were measured by surface plasmon resonance (SPR) using a Biacore3000 or Biacore T200 instrument (GE Healthcare) with HBS-EP (GE Healthcare) as assay buffer). Capture of CD3ε/δ-Fc or CD123-Fc-His fusion proteins was achieved using the His capture kit (GE Healthcare). The capture antibody was coupled to CM5 chips (GE Healthcare) to approx. 12.000 RU using the amine coupling kit (BR-100-50, GE Healthcare). The CD3εδ-Fc or CD123-Fc-His fusion proteins were captured at 10 μl/min to yield Rmax values of 30 RU. Binding kinetics with the CODV antibody-like binding proteins was measured at 30 μl/min Twofold dilutions of CODV antibody-like binding proteins from 3 to 200 nM in assay buffer were used. All Fab concentrations were run in duplicate together with duplicate buffer blanks for double referencing. Regeneration of the capture surface was performed with a 1 min injection of 10 mM Glycine pH1.5 at 30 μl/min. For data analysis the BIAevaluation software (GE Healthcare) was used. […]

[2] = target: T2, CD123 on THP-1 target cells (UniProt P26951 19-378); assay: cell-based or functional assay
[3] = target: T2, CD123 on THP-1 target cells; assay: cell-based or functional assay; remark: listed apart in the source
[4] = target: T2, CD123 on THP-1 target cells; assay: cell-based or functional assay; remark: listed apart in the source
[5] = target: T2, CD123 on THP-1 target cells; assay: cell-based or functional assay; remark: listed apart in the source
[6] = target: T2, CD123 on THP-1 target cells; assay: cell-based or functional assay; remark: listed apart in the source
[7] = target: T2, CD123 on THP-1 target cells; assay: cell-based or functional assay; remark: listed apart in the source
[8] = target: T2, CD123 on THP-1 target cells; assay: cell-based or functional assay; remark: listed apart in the source
[9] = target: T1, mature human CD123 His-II tagged …; assay: SPR (Biacore), CD123-Fc-His captured with His capture kit, CODV as analyte, 1:1 Langmuir with mass transfer
Experimental: Binding affinities of CODV antibody-like binding proteins to human CD3ε/δ and human CD123 were measured by surface plasmon resonance (SPR) using a Biacore3000 or Biacore T200 instrument (GE Healthcare) with HBS-EP (GE Healthcare) as assay buffer). Capture of CD3ε/δ-Fc or CD123-Fc-His fusion proteins was achieved using the His capture kit (GE Healthcare). The capture antibody was coupled to CM5 chips (GE Healthcare) to approx. 12.000 RU using the amine coupling kit (BR-100-50, GE Healthcare). The CD3εδ-Fc or CD123-Fc-His fusion proteins were captured at 10 μl/min to yield Rmax values of 30 RU. Binding kinetics with the CODV antibody-like binding proteins was measured at 30 μl/min Twofold dilutions of CODV antibody-like binding proteins from 3 to 200 nM in assay buffer were used. All Fab concentrations were run in duplicate together with duplicate buffer blanks for double referencing. Regeneration of the capture surface was performed with a 1 min injection of 10 mM Glycine pH1.5 at 30 μl/min. For data analysis the BIAevaluation software (GE Healthcare) was used. Data were fit globally using a 1:1 Langmuir model with mass transfer.

T2 sequence (P26951 19-378): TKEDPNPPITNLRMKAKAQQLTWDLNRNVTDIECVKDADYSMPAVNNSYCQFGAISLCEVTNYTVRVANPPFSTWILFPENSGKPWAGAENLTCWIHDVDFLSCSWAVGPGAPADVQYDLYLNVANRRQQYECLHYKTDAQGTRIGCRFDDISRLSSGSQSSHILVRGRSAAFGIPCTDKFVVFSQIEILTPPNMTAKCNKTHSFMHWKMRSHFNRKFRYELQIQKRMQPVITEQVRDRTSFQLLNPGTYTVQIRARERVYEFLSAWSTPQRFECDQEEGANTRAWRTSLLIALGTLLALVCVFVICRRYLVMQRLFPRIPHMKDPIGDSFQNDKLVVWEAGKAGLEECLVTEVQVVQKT
T1 sequence (chain, as listed by the source limits assumed): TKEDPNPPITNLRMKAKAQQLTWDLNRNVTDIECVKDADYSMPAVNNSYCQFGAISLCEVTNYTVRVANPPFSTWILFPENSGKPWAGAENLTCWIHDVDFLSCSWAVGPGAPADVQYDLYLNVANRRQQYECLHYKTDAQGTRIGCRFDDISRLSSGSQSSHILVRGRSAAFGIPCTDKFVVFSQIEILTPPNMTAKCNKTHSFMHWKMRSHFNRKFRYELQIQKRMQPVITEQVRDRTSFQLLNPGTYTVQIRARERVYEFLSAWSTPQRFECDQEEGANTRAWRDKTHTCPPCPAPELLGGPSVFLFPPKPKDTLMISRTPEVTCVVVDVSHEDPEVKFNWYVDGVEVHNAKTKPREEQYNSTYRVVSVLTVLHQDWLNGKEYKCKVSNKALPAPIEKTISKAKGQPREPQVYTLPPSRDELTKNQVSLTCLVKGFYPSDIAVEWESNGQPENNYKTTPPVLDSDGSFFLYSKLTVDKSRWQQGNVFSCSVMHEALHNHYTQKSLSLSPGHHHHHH

B1: Single chain antibody DART format MGD006 (CD123xCD3 bi-specific diabody) (bispecific antibody)
chain 1: QAVVTQEPSLTVSPGGTVTLTCRSSTGAVTTSNYANWVQQKPGQAPRGLIGGTNKRAPWTPARFSGSLLGGKAALTITGAQAEDEADYYCALWYSNLWVFGGGTKLTVLGGGGSGGGGEVQLVQSGAELKKPGASVKVSCKASGYTFTDYYMKWVRQAPGQGLEWIGDIIPSNGATFYNQKFKGRVTITVDKSTSTAYMELSSLRSEDTAVYYCARSHLLRASWFAYWGQGTLVTVSSGGCGGGEVAALEKEVAALEKEVAALEKEVAALEK
chain 2: DFVMTQSPDSLAVSLGERVTMSCKSSQSLLNSGNQKNYLTWYQQKPGQPPKLLIYWASTRESGVPDRFSGSGSGTDFTLTISSLQAEDVAVYYCQNDYSYPYTFGQGTKLEIKGGGSGGGGEVQLVESGGGLVQPGGSLRLSCAASGFTFSTYAMNWVRQAPGKGLEWVGRIRSKYNNYATYYADSVKDRFTISRDDSKNSLYLQMNSLKTEDTAVYYCVRHGNFGNSYVSWFAYWGQGTLVTVSSGGCGGGKVAALKEKVAALKEKVAALKEKVAALKE
notes: The two chains are covalently bonded to one another by a disulfide bond; also called single chain DART; CD123xCD3 bispecific DART
Kd [1]: 200 pM | T cell activation with THP-1 target cells, CD4+ T cells (% CD69+ cells) EC50 [2]: 1 pM | T cell activation with THP-1 target cells, CD8+ T cells (% CD69+ cells) EC50 [2]: 3.5 pM | Cytotoxic assay (THP cells) EC50 [3]: 0.3 pM | Jurkat-NFAT-Luc reporter cell activation with THP1 cells, EC50 [4]: 370 pM

B2: CODV-Fab-TL1-Knob-RFxhole "hz20G6xhz7G3" antibody-like binding protein (bispecific antibody, human IgG1, kappa, L234A L235A)
light: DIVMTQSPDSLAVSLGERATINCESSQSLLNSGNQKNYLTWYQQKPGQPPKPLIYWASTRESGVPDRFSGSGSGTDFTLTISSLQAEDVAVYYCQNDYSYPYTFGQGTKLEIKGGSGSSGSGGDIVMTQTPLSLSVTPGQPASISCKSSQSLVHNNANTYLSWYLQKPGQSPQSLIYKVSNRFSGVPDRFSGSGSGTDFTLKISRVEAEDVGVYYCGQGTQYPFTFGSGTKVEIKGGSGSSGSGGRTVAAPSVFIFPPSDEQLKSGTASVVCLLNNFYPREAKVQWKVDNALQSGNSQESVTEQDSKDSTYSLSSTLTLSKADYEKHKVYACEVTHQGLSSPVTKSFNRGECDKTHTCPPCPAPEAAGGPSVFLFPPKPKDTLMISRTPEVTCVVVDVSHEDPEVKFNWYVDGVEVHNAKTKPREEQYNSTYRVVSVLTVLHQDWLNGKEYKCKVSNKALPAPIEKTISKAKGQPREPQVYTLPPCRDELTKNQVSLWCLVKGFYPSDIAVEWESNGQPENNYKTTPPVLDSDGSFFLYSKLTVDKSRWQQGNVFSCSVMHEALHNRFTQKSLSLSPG
heavy: QVQLVESGGGVVQPGRSLRLSCAASGFTFTKAWMHWVRQAPGKQLEWVAQIKDKSNSYATYYADSVKGRFTISRDDSKNTLYLQMNSLRAEDTAVYYCRGVYYALSPFDYWGQGTLVTVSSEVQLVQSGAEVKKPGESLKISCKGSGYSFTDYYMKWARQMPGKGLEWMGDIIPSSGATFYNQKFKGQVTISADKSISTTYLQWSSLKASDTAMYYCARSHLLRASWFAYWGQGTMVTVSSASTKGPSVFPLAPSSKSTSGGTAALGCLVKDYFPEPVTVSWNSGALTSGVHTFPAVLQSSGLYSLSSVVTVPSSSLGTQTYICNVNHKPSNTKVDKKVEPKSCDKTHTCPPCPAPEAAGGPSVFLFPPKPKDTLMISRTPEVTCVVVDVSHEDPEVKFNWYVDGVEVHNAKTKPREEQYNSTYRVVSVLTVLHQDWLNGKEYKCKVSNKALPAPIEKTISKAKGQPREPQVCTLPPSRDELTKNQVSLSCAVKGFYPSDIAVEWESNGQPENNYKTTPPVLDSDGSFFLVSKLTVDKSRWQQGNVFSCSVMHEALHNHYTQKSLSLSPG
notes: CODV-Fab-TL format; IgG1 backbone with LALA mutation
flow cytometry based cytotoxic assay, EC50 (pM) GMean [5]: 0.8 pM | T-cell Activation with THP-1 target cells, CD4+/CD69+ EC50 (pM) GMean [6]: 0.7 pM | T-cell Activation with THP-1 target cells, CD8+/CD69+ EC50 (pM) GMean [6]: 1.2 pM | Activity - CD4+/CD69+ % Activation C = 100 nM Mean (with THP-1 target cells) [7]: 63% | Activity - CD8+/CD69+ % Activation C = 100 nM Mean (with THP-1 target cells) [8]: 68% | Kd [9]: 215 pM | koff [9]: 0.000102 s⁻¹ | kon [9]: 474000 M⁻¹ s⁻¹

B3: CODV-Fab-TL1-Knobxhole-RF "hz20G6xhz7G3" antibody-like binding protein (bispecific antibody, human IgG1, kappa, L234A L235A)
light: not shown
heavy: QVQLVESGGGVVQPGRSLRLSCAASGFTFTKAWMHWVRQAPGKQLEWVAQIKDKSNSYATYYADSVKGRFTISRDDSKNTLYLQMNSLRAEDTAVYYCRGVYYALSPFDYWGQGTLVTVSSEVQLVQSGAEVKKPGESLKISCKGSGYSFTDYYMKWARQMPGKGLEWMGDIIPSSGATFYNQKFKGQVTISADKSISTTYLQWSSLKASDTAMYYCARSHLLRASWFAYWGQGTMVTVSSASTKGPSVFPLAPSSKSTSGGTAALGCLVKDYFPEPVTVSWNSGALTSGVHTFPAVLQSSGLYSLSSVVTVPSSSLGTQTYICNVNHKPSNTKVDKKVEPKSCDKTHTCPPCPAPEAAGGPSVFLFPPKPKDTLMISRTPEVTCVVVDVSHEDPEVKFNWYVDGVEVHNAKTKPREEQYNSTYRVVSVLTVLHQDWLNGKEYKCKVSNKALPAPIEKTISKAKGQPREPQVCTLPPSRDELTKNQVSLSCAVKGFYPSDIAVEWESNGQPENNYKTTPPVLDSDGSFFLVSKLTVDKSRWQQGNVFSCSVMHEALHNRFTQKSLSLSPG
notes: as for B2
flow cytometry based cytotoxic assay, EC50 (pM) GMean [5]: 1.1 pM | T-cell Activation with THP-1 target cells, CD4+/CD69+ EC50 (pM) GMean [6]: 0.9 pM | T-cell Activation with THP-1 target cells, CD8+/CD69+ EC50 (pM) GMean [6]: 1.6 pM | Activity - CD4+/CD69+ % Activation C = 100 nM Mean (with THP-1 target cells) [7]: 64% | Activity - CD8+/CD69+ % Activation C = 100 nM Mean (with THP-1 target cells) [8]: 70% | Kd [9]: 193 pM | koff [9]: 8.42e-05 s⁻¹ | kon [9]: 437000 M⁻¹ s⁻¹

B4: CODV-Fab-TL1-RF "hz20G6xhz7G3" antibody-like binding protein (bispecific antibody, human IgG1, kappa, L234A L235A)
light: DIVMTQSPDSLAVSLGERATINCESSQSLLNSGNQKNYLTWYQQKPGQPPKPLIYWASTRESGVPDRFSGSGSGTDFTLTISSLQAEDVAVYYCQNDYSYPYTFGQGTKLEIKGGSGSSGSGGDIVMTQTPLSLSVTPGQPASISCKSSQSLVHNNANTYLSWYLQKPGQSPQSLIYKVSNRFSGVPDRFSGSGSGTDFTLKISRVEAEDVGVYYCGQGTQYPFTFGSGTKVEIKGGSGSSGSGGRTVAAPSVFIFPPSDEQLKSGTASVVCLLNNFYPREAKVQWKVDNALQSGNSQESVTEQDSKDSTYSLSSTLTLSKADYEKHKVYACEVTHQGLSSPVTKSFNRGECDKTHTCPPCPAPEAAGGPSVFLFPPKPKDTLMISRTPEVTCVVVDVSHEDPEVKFNWYVDGVEVHNAKTKPREEQYNSTYRVVSVLTVLHQDWLNGKEYKCKVSNKALPAPIEKTISKAKGQPREPQVYTLPPSRDELTKNQVSLTCLVKGFYPSDIAVEWESNGQPENNYKTTPPVLDSDGSFFLYSKLTVDKSRWQQGNVFSCSVMHEALHNRFTQKSLSLSPG
heavy: not shown
notes: Anti-CD3 (hz20G6) x anti-CD123 (hz7G3) in the CODV-Fab-TL format; IgG1 backbone with LALA mutation; also called hz20G6xhz7G3 CODV-Fab-TL1-RF; PB05126
Kd [1]: 200 pM | T cell activation with THP-1 target cells, CD4+ T cells (% CD69+ cells) EC50 [2]: 3.2 pM | T cell activation with THP-1 target cells, CD8+ T cells (% CD69+ cells) EC50 [2]: 9.9 pM | Cytotoxic assay (THP cells) EC50 [3]: 1 pM | Jurkat-NFAT-Luc reporter cell activation with THP1 cells, EC50 [4]: 444 pM | flow cytometry based cytotoxic assay, EC50 (pM) GMean [5]: 0.8 pM | T-cell Activation with THP-1 target cells, CD4+/CD69+ EC50 (pM) GMean [6]: 0.5 pM | T-cell Activation with THP-1 target cells, CD8+/CD69+ EC50 (pM) GMean [6]: 0.7 pM | Activity - CD4+/CD69+ % Activation C = 100 nM Mean (with THP-1 target cells) [7]: 75% | Activity - CD8+/CD69+ % Activation C = 100 nM Mean (with THP-1 target cells) [8]: 78% | Kd [9]: 339 pM | koff [9]: 0.000104 s⁻¹ | kon [9]: 308000 M⁻¹ s⁻¹
